# Experimental data published in article PMC3343115, “Selective Blockade of Trypanosomatid Protein Synthesis by a Recombinant Antibody Anti-Trypanosoma cruzi P2β Protein” (PLoS ONE, 2012).
# B1: single chain recombinant antibody C5 (scFv C5) (scFv, V domains shown)
# VH: EVQLEESGGRLVQPKGSLKLSCAASGFSFNTNAMNWVRQAPGKGLEWVARIRSKINNYSTYYADSVKDRFTISRDDSQSMLYLQMNNLKTEDTAMYYCVRGTTYWGQGTLVTVSA
# VL: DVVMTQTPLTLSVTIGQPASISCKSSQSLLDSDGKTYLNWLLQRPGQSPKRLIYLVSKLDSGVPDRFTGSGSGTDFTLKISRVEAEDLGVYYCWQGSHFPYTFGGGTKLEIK
# notes: VH of scFv C5, which derives from the parental monoclonal antibody 17.2; heavy chain variable domain of mAb 17.2 in PDB 3SGE (complex with R13) and 3SGD (apo); linker between the variable domains; VL of scFv C5, which derives from the parental monoclonal antibody 17.2; light chain variable domain of mAb 17.2 in PDB 3SGE (complex with R13) and 3SGD (apo); The His tag is known from detection with …
# What was measured:
# [1] = molecular target: T. cruzi ribosomal P0 protein (Trypanosoma cruzi, strain  in …, UniProt P26796); assay: cell-based or functional assay
# [2] = molecular target: T1, TcP2β-GST fusion protein (Trypanosoma cruzi ribosomal P2β protein) (Trypanosoma cruzi, strain , UniProt P26795); assay: SPR; competition on BIACORE 3000: TcP2β-GST immobilised by amine coupling at 0.05 pmol/mm2; scFv C5 pre-incubated 30 min with different concentrations of peptide, injected 2 min, 3 min dissociation, 30 µl/min; HBS-EP buffer pH 7.4, 150 mM NaCl; IC50 from the decrease in the initial linear kinetics; conditions: both partners purified
# T1 construct: Trypanosoma cruzi ribosomal P2β protein (TcP2β), recombinant; also called recombinant TcP2β protein
# [3] = molecular target: T2, R13 peptide (C-terminal epitope of T. cruzi P1α, P1β, P2α and P2β) (Trypanosoma cruzi); assay: as above; conditions: both partners purified
# T2 construct: the text prints only the motif 3-EdDDmGF-9; the peptide is also in PDB 3SGE; source: synthetic peptide
# T2 chain: EEEDDDMGFGLFD
# [4] = molecular target: T3, P015 peptide (C-terminal region of T. cruzi P0) (Trypanosoma cruzi, UniProt P26796); assay: as above; conditions: both partners purified
# T3 construct: C-terminal region of the Trypanosoma cruzi ribosomal P0 protein (TcP0), called P015; aspartic acid in place of glycine 8 of R13; source: synthetic peptide
# T3 chain: EEEDDDDDFGMGALF
# T1 sequence (P26795 whole entry, the tested form may be a part): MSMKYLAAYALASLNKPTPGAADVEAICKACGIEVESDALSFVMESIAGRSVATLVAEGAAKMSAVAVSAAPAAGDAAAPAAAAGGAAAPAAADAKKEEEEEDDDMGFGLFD
# Chain of T. cruzi ribosomal P0 protein (P26796 whole entry, looked up, the tested form may be a part): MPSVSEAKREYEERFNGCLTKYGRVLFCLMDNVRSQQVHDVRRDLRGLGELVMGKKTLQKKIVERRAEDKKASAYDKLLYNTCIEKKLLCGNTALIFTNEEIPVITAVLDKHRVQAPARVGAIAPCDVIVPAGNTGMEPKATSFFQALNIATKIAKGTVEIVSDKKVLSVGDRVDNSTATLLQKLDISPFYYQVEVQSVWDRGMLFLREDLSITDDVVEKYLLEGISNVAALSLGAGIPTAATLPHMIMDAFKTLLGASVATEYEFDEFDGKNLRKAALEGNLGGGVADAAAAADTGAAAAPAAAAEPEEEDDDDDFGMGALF
binder,measurement,setting,value
B1,"inhibition of in vitro protein synthesis ([35S]-methionine incorporation) by T. cruzi ribosomes (about 130 nM), dose-response of scFv C5, IC50",[1],~62.4 nM
same,binding result,[2],binds
same,IC50,[3],2370 ± 230 nM
same,IC50,[4],22600 ± 2030 nM
